Data on one substance can be found in article PMC2911377.

In the assay the target is amino terminal enhancer of Split (AES), HA tagged (human) (UniProt Q08117).
Chain of UniProt Q08117 (Q08117 whole entry): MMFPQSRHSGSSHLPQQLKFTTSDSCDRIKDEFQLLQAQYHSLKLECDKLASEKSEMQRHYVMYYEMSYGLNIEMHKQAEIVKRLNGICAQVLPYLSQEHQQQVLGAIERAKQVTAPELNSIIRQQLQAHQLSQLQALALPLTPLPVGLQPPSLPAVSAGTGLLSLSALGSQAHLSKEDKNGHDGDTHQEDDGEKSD

In the case of “GFP-LRP6-ICD-myc-NLS (wild type LRP6-ICD with a nuclear localization signal) (domain or fragment)”, the repression of AES mediated TOP (TOPflash, TCF/LEF-1 luciferase reporter) transcription in HEK 293T cells co-transfected with AES-HA and GFP-LRP6-ICD-NLS, 24 hrs was 138%.
